IntAct's records for PubMed 19571008

B1: Non-homologous end-joining protein 1 (Saccharomyces cerevisiae), Q06148 (parent)
chain: MDSELKGQQLSDAEWCVKKINGEGNCLLLFLPMSSPTTIVMIVLVSLERLVPYVFKLSQTQLSQQCQSQGFTDSISLNLIKLKLMDILQAPQEINQIGLVDSNLVFSFDVSADITVSINSVPSHVTKDMFYMILQSLCMLLLKLVNLSTQYHYVQRDILNEKQKCLDFLLISLRDLDGGSKVISQWAPENSKNYESLQQCTDDDIIKKLLHKGKFQHQEFLADSLKTLLSLRNKFQDVSRFEESGELNKKERVRFPAVNHFYNDDFELQADPTNEARPNSRGKIKPKTDFKPKSRESSTSSQLRLENFSESEATPEKTKSSSSLVEEYPQKKRKFGKVRIKN

Variants of: B1
Conditions: with srs2_yeast SRS2, P12954
Sequence of srs2_yeast SRS2, P12954 (P12954 whole entry): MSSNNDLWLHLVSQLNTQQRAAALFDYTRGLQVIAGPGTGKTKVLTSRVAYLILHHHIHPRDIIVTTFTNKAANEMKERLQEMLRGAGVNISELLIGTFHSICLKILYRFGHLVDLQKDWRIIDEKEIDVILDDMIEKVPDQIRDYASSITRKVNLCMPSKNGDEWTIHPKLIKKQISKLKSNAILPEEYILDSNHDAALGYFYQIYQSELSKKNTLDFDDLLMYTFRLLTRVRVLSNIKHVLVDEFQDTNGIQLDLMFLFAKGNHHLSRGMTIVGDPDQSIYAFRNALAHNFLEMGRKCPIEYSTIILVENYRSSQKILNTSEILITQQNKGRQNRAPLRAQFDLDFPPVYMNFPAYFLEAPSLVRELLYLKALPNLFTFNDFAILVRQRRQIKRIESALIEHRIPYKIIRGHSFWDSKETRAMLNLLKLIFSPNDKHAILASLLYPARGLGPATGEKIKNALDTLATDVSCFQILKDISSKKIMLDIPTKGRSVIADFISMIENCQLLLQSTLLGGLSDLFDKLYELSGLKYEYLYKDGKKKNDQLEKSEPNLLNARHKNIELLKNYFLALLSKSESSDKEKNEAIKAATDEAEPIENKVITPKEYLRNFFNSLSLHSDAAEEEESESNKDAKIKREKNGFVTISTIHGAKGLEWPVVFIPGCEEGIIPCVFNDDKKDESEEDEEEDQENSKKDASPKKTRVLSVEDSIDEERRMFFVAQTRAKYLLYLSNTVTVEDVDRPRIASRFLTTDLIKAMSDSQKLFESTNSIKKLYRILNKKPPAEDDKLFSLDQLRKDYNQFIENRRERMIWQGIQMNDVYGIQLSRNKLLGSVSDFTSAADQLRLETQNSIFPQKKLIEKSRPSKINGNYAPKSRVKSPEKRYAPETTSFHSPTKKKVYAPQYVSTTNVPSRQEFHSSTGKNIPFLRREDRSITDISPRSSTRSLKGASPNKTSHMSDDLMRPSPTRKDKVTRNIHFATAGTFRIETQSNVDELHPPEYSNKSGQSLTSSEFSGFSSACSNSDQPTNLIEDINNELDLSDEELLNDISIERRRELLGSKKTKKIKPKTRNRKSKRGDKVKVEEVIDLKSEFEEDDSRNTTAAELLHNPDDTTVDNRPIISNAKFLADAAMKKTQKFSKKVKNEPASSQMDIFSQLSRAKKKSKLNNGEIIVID

effect of a mutation on the interaction | Variant
disrupting interaction | S297A
disrupting interaction | S298A
disrupting interaction | S297A;S298A
